Values belong to the molecule of their own block, whether it stands above or below them.
Columns and labels:
LTC4 synthase [1] = biological target: T1, LTC4 synthase (Homo sapiens, UniProt Q16873); experiment: Measurement of LTC4 synthase activity (LTC4 formation from LTA4 and reduced glutathione, reverse-phase HPLC); type: biochemical; parameters: endogenous in cells; host or cells: THP-1 cells; some values from human lung tissue
T1 sequence (Q16873 1-150): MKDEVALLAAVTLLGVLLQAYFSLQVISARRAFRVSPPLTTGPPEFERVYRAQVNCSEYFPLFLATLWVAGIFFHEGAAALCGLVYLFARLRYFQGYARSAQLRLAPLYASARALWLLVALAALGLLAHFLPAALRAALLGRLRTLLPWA
Experimental: The mixtures were allowed to stand for a minimum of 30 min. at 4° C. (or overnight). […] The bulk of the resulting supernatant (250 μl) was then transferred to sample vials for reverse-phase HPLC of which 200 μl was injected for analysis.
Analysis of LTC4 Formation by Reverse-Phase HPLC--The reaction products formed in the incubation mixtures described above were resolved by isocratic reverse-phase HPLC on a Waters Associates Novapak C18 column (3.9×150 mm, 4μ particle size). The mobile phase was acetonitrile:methanol:water:acetic acid at 54:14:28:1 adjusted to pH 5.6 with 10 NaOH and was pumped at a flow rate of 1.0 mL/min. LTC4 was quantified by on-line measurement of the optical density at 280 nm. The LTC4 peak was identified by its retention time compared to a synthetic standard (normally 10 min.).

LTC4 synthase [2] = biological target: T1, LTC4 synthase; settings: LTC2-X-biotin:streptavidin-agarose column
[3] = Longevity of LTA4 free acid in mock incubation mixtures under aqueous conditions; type: physicochemical; settings: mock incubation mixtures with 0.05% (w/v) bovine serum albumin and potassium phosphate buffer
Excerpt: Hydrolysis of LTA4 Methyl Ester--The methyl ester of leukotriene A4 was hydrolyzed to the free acid essentially as described by Carrier, D. J. et al., Prostaglandins Leukot. Essent. Fatty Acids, 34, 27-30 (1988). The hydrolysis was monitored by determination of LTA4 by reverse-phase HPLC at pH 10 (Wynalda, M. A. et al., Anal. Chem., 54, 1079-1082 (1982)) except that LTA4 and LTA4 -methyl ester were eluted by a gradient of 20 to 70% (v/v) acetonitrile in borate buffer instead of isocratically as described in Wynalda et al. LTA4 -methyl ester (1.0 mg in hexane) was dried under a stream of nitrogen and then dissolved in 4 mL of 0.25 M NaOH:acetone (2:8 v/v). Following incubation for 60 min. at 25° C., the hydrolysis mixture was portioned into aliquots that were stored at -80° C. (up to 1 month). Following this procedure, the recovery of LTA4 free acid was >95% as confirmed by analysis of the hydrolysis products by reverse-phase HPLC under alkaline conditions (Wynalda et al.).

[4] = biological target: T2, THP-1 microsomal membrane protein (Homo sapiens, UniProt Q16873); experiment: Photoaffinity labelling of THP-1 cell membranes; type: binding; settings: 20 pM ligand, 0.3 mg THP-1 microsomal membrane protein, SDS-gel autoradiography
T2 construct: 0.3 mg of THP-1 microsomal membrane protein; endogenous in cells; host or cells: THP-1 cells (microsomal membranes)
T2 sequence (Q16873 1-150): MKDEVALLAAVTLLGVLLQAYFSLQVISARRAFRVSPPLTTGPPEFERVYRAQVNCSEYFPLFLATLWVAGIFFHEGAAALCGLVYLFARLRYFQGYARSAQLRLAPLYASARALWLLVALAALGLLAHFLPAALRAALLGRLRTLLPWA
Experimental: The mixtures were incubated in 1.5 mL microcentrifuge tubes for 30 min. at 25° C. then transferred to 35 mm diameter cluster plate wells for photolysis. The samples in cluster plates were cooled for 5 min. at 4° C. then illuminated from above with a 40W ultraviolet light source (Phillips, λmax =350 nm) at a distance of 5 cm for 2 min. at 4° C. The samples were then transferred back into 1.5 mL microcentrifuge tubes and the membranes were re-isolated by centrifugation for 15 min. at 200,000×g. The resulting pellets were dissociated in SDS-containing sample buffer, denatured at 95° C. for 5 min. and then the proteins were resolved by SDS-gel electrophoresis. Radioactive bands in the dried gels were visualized by autoradiography and quantified by laser densitometry.

[5] = substrate: N[C@@H](CCC(=O)N[C@@H](CS)C(=O)NCC(=O)O)C(=O)O; experiment: purified protein, by the assay type; settings: 25.0 °C
[6] = substrate: CCCCCC=CCC=CC=CC=CC1OC1CCCC(=O)O; experiment: purified protein, by the assay type; type: biochemical, human; settings: 25.0 °C
[7] = other: THP-1 cells LTC4 synthase
[8] = other: human monocytes LTC4 synthase
[9] = purification fractions from 2×10^11 THP-1 cells

half-life [3]: approximately 30 min.
Preferred substrate (LTC4 synthase [1]): LTA4 free acid >> LTA4 methyl ester
Molecule: CCCCCC=CCC=CC=CC=CC1OC1CCCC(=O)O (stereo not shown) [LTA4, leukotriene A4, reference compound]

Activity (LTC4 synthase [1]; [9]): 1.378 nmol · min^-1 .multid
Spec. Activity (LTC4 synthase [1]; [9]): 4135 nmol · min^-1 .multid
Rel. Spec. Activity (LTC4 synthase [1]; relative to specific activity in harvested cells set at 1.00): 27,384
B1: LTC4 synthase (Homo sapiens) (protein)
chain: MKDEVALLAAVTLLGVLLQAYFSLQVISARRAFRVSPPLTTGPPEFERVYRAQVNCSEYFPLFLATLWVAGIFFHEGAAALCGLVYLFARLRYFQGYARSAQLRLAPLYASARALWLLVALAALGLLAHFLPAALRAALLGRLRTLLPWA
notes: endogenous in cells; host or cells: THP-1 cells; some values from human lung tissue
Km [5, 7]: 1670 µM
Km [5, 8]: 1200 µM
Km [6, 7]: 9.89 µM
Km [6, 8]: 5.6 µM

Continued, molecule first:

Molecule: CCCCCC=CCC=CC=CC=CC1OC1CCCC(=O)OC (stereo not shown) [LTA4 methyl ester, methyl ester of leukotriene A4, reference compound]
Preferred substrate (LTC4 synthase [1]): LTA4 free acid >> LTA4 methyl ester

Molecule: [Cl-].[Na+] [NaCl]
effect on LTC4 synthase binding to the affinity resin (LTC4 synthase [2]): inhibited LTC4 synthase binding to the affinity resin

Molecule: N[C@@H](CCC(=O)N[C@@H](CS)C(=O)NCC(=O)O)C(=O)O [GSH, Reduced glutathione, reference compound]
effect on LTC4 synthase binding to the affinity resin (LTC4 synthase [2]): inhibited LTC4 synthase binding to the affinity resin

Molecule: CCCCC/C=C\C\C=C/C=C/C=C/[C@@H](SC[C@H](NC(=O)CC[C@H](NC(=O)CCCCCNC(=O)c1cc([125I])c(N=[N+]=[N-])cc1O)C(=O)O)C(=O)NCC(=O)O)[C@@H](O)CCCC(=O)O [Azido^125 I LTC4]
photoaffinity radiolabelling of membrane polypeptide [4]: specifically radiolabelled a single membrane polypeptide
